From US20250345467A1, “DENDRIMER FOR THERAPY AND IMAGING” (priority 2018, published 2025)

Columns and labels:
[1] = system: DU-145 subcutaneous tumours; assay: Therapeutic study with radionuclide-containing dendrimers, DU-145 subcutaneous tumours; type: in vivo, Balb/C nude mice; conditions: FIG. 20
Source text: Healthy male Balb/C nude mice (˜20 g) from 8 weeks old were obtained from the ARC and used for this study. Mice were imported into the animal holding facility and monitored for 1 week prior to the study in order to acclimatise to the environment prior to injection of cells. All animals were provided with free access to food and water before and during the imaging experiments which were approved by the Animal Ethics Committee.
The following compounds were used in the study: • Example 4b • Example 5 • Jevtana® (cabazitaxel) • Comparative example A: a non-radionuclide-containing dendrimer, which is BHALys[Lys]32[α-DGA-Cabazitaxel]32†[ε-PEG˜2100]32‡. […] The actual mean number of PEG˜2100 groups attached to the BHALys[Lys]32 was determined experimentally by ^1H NMR. […]
78 mice were injected with 4×10^6 DU-145 cells in Matrigel into the right flank to induce subcutaneous tumours. Tumour volume and body mass was monitored twice per week before mice with evident tumour growth (approximately […] in volume, tumour volume=½ (length×width^2)) were randomly assigned to groups and injected with compounds according to the schedule outlined in the table below, at day 0, 7 and 14. Following injections, the mice were monitored three times per week for tumour volume and body mass. […]

[2] = Organ biodistribution, clearance and health monitoring in the prostate cancer xenograft study; type: in vivo, Balb/C nude mice; conditions: Zr-89 labelled, mice bearing DU-145 or PC3 xenografts, whole study (9 days)
Experimental: The accumulation of two different dendrimer constructs in two different murine xenograft models of prostate cancer (DU145 and PC3 cell lines) was investigated. The two different constructs were compound 1b and 3 which are pre-conjugated with DFO, which were labelled with 89Zr for subsequent imaging studies. The biodistribution was measured by PET-CT out to 9 days in two different tumour xenografts and then validated by ex vivo gamma scintillation of excised organs at day 9.
Dendrimers were labelled and purified, validated by radioTLC prior to injection into the animals. Imaging was conducted in a cohort of n=4 mice for each cell line and each dendrimer. Standard health of the mice was monitored by score sheet and mouse weight over the complete timeframe of the study.
Healthy male Balb/C nude mice (˜20 g) from 8 weeks old were obtained from the ARC and used for this study. Mice were imported into the animal holding facility and monitored for 1 week prior to the study in order to acclimatise to the environment prior to injection of cells. […]
Mice (n=4 per group) bearing DU-145 or PC3 xenografts were injected with Zr-89 labelled dendrimers (compounds 1b and 3) via tail-vein. […] At 216 hrs post-injection, the organs were removed and signal intensity quantified by ex vivo gamma analysis. Faecal pellets were also measured for activity at this timepoint. […]

[3] = system: spontaneous gliomas (high grade glioma mouse model); assay: PET-MRI tumour imaging study, glioblastoma; type: in vivo, mice; conditions: Zr-89 radiolabelled, approximately 5 MBq; for % ID/g at 40 hrs: 40 hrs post-injection; for % ID/g at 5 days: 5 days post-injection
Source text: The aim of this study was to assess the level of accumulation of example radionuclide-containing dendrimers in mice bearing spontaneous gliomas. This model provides a route to effectively assess the ability to both cross the blood-brain-barrier (BBB) as well as accumulate in tumour tissue.
Gt(ROSA)26So^rtm14(CAG-tdTomato)Hze 20023653 was crossed with Pten^tm2MAK; Rb1^tm2Bm; Trp53^tm1Bm; Tg(GFAP-cre/Esr1*,−lacZ)BSbk^31,44-47 (alleles) and backcrossed six generations to latter mice to generate Gt(ROSA)26Sor^tm14(CAG-tdTomato)Hze; Pten^tm2MAK; Rb1^tm2Bm; Trp53^tm1Bm; Tg(GFAP-cre/Esr1*,−lacZ)BSbk (high grade glioma mouse model; HGG). Mice were maintained on a predominantly FVB/NJ background with contributions from 129/SV and C57Bl6. To induce Cre recombinase and thereby tumor formations, 20 mg/ml Tamoxifen (Sigma-Aldrich) dissolved in corn oil (Sigma-Aldrich) was injected intraperitoneally. Up to 200 mg/kg body weight was administered weekly for 3 consecutive weeks after postnatal day (P) 30 (range P30-44). Animal's health and welfare was monitored up to twice daily and animals were euthanized based on morbidity requirement.
91 μL Zr-89 oxalate in 1 M oxalic acid (Perkin Elmer) was diluted with 78 μL 1 M Na2CO3 to neutralize pH. Dendrimer 1b was dissolved in 0.5 M HEPES (pH 7.5). 33 μL neutralized Zr-89 stock (approximately 15 MBq) was added to the dendrimer (146 μg) to give 100-fold excess of the dendrimer to Zr-89 and labelling was allowed to proceed at room temperature for 1 hour. The sample was then buffer exchanged into phosphate-buffered saline using Zeba Spin Desalting Columns (7 kDa MWCO, Thermo Fisher Scientific). 1 μL sample of the solution was taken and spotted on thin layer chromatography paper (Agilent iTLC-SG Glass microfiber chromatography paper impregnated with silica gel) and run with 50 mM diethylenetriaminepentaacetic acid (DTPA) as the eluent. Control experiments were conducted to monitor the elution behaviour of unbound Zr-89 for quality control. Plates were then imaged on a Bruker In Vivo MS FX Pro imaging system using a radioisotopic phosphor screen. ˜100% chelation of the Zr-89 was observed and so the dendrimer was used directly for the imaging experiments.
Anaesthetized mice, with a cannulated tail vein, were placed in a combined MRI/PET system, comprising a 300 mm bore 7T ClinScan, running Siemens VB17, and removable PET insert containing 3 rings of 16 detector blocks with 15×15 LSO crystals (1.6×1.6×10 mm) per block, at the centre of the magnet bore operating under Siemens Inveon Acquisition Workplace (IAW) (Bruker, Germany). A 23 mm ID mouse head MRI RF coil inside the PET ring was used to acquire mouse head images simultaneously with the PET acquisition.
Mice were injected with approximately 5 MBq of Zr-89 labelled dendrimer 1b and imaged 40 hours and 5 days post-injection. At each imaging point a dose of Gadovist® contrast agent was injected to obtain pre- and post-contrast T1, T2, and dynamic image data. The injection dose at each timepoint was comprised of 50 μl Gadovist® diluted with PBS (1×) to give a total volume of 200 μl. This volume was injected via a catheter inserted into the tail vein in a slow bolus injection. Where collected, dynamic PET data acquisition was performed for 60 min. Prior to injection, fast localizer images and a 3D T1 weighted volumetric interpolated breath-hold examination VIBE sequence was acquired. Dynamic MRI images were acquired with a Gradient echo FLASH sequence, with 3 slices acquired each 2 seconds interval. The PET acquisition and dynamic MRI imaging was started simultaneously, a 2-3 min baseline period acquired and then the solution was injected. Following 15 min of dynamic MRI scanning, the T1 weighted VIBE was repeated, structural T2 weighted spin echo images acquired and a […] T1 weighted VIBE_DIXON sequence acquired to generate a 3D T1 map. […]

Substance | suppression of tumour growth, ranking among groups ([1]; group 4: higher dose, 4b 8 mg/kg (6 MBq) day 0, then Comparative Example A 8 mg/kg days 7 and 14) | suppression of tumour growth ([1]; groups 4 and 7: Lu-177 labelled 4b 8 or 5 mg/kg (6 MBq) day 0, then Comparative Example A days 7 and 14) | adverse health effects [2] | % ID/g at 40 hrs ([3]; Brain (minus tumour)) [% ID/g] | % ID/g at 5 days ([3]; Brain (minus tumour)) [% ID/g] | % ID/g at 40 hrs ([3]; Tumour) [% ID/g] | % ID/g at 5 days ([3]; Tumour) [% ID/g] | % ID/g at 40 hrs ([3]; Vascalature) [% ID/g] | % ID/g at 5 days ([3]; Vascalature) [% ID/g]
BHALys[Lys]32[(α-DGA-CTX)27(α-DOTA)2(ε-PEG2000)32] [Compound 4b] | most effective | effective in suppressing tumour growth | – | – | – | – | – | – | –
BHALys[Lys]32[(α-DGA-CTX)31(α-DFO)1(ε-PEG2000)32] [Compound 3] | – | – | no adverse health effects | – | – | – | – | – | –
BHALys[Lys]32[(α-TDA-DTX)30(α-DFO)2(ε-PEG2000)32] [Compound 1b] | – | – | no adverse health effects | 2.0 | 1.5 | 4.3 | 4.0 | 2.3 | 2.0
